Reference: patent publication US20160250307A1 (IMMATICS BIOTECHNOLOGIES, published 2016)

Legend:
[1] = molecular target: HLA-A*02 (human); experiment: UV-ligand exchange, anti-b2m ELISA; grade: exchange yield >=75%
[2] = molecular target: HLA-A*02 (human); experiment: as above; remark: listed apart in the source
[3] = molecular target: HLA-A*02 (human); experiment: UV-ligand exchange, anti-b2m ELISA; grade: exchange yield >=50%
[4] = molecular target: HLA-A*02 (human); experiment: UV-ligand exchange, anti-b2m ELISA; grade: exchange yield 50%-75%
[5] = molecular target: HLA-A*02 (human); experiment: UV-ligand exchange, anti-b2m ELISA; grade: exchange yield >=20%

## FLFNTENKLLL (also called IDI1-001)
[1]
  peptide exchange yield: ≥ 75%
[2]
  peptide exchange yield: ≥ 75%

## VMAPFTMTI (also called APOB-003)
[1]
  peptide exchange yield: ≥ 75%
[2]
  peptide exchange yield: ≥ 75%

## KMDPVAYRV (also called QAR-001)
[3]
  peptide exchange yield: 50 to 75%
[4]
  peptide exchange yield: 50 to 75%

## SLLGGNIRL (also called ACSL3-001)
[1]
  peptide exchange yield: ≥ 75%
[2]
  peptide exchange yield: ≥ 75%

## VLADFGARV (also called C1QTNF3-001)
[4]
  peptide exchange yield: 50 to 75%

## ALCEENMRGV (also called EEF2-001)
[3]
  peptide exchange yield: 50 to 75%
[4]
  peptide exchange yield: 50 to 75%

## LLYGHTVTV (also called SLC35B2-001)
[1]
  peptide exchange yield: ≥ 75%
[2]
  peptide exchange yield: ≥ 75%

## ALVDTLKFV (also called APOB-002)
[1]
  peptide exchange yield: ≥ 75%
[2]
  peptide exchange yield: ≥ 75%

## GLIDTETAMKAV (also called HSD11B1-001)
[1]
  peptide exchange yield: ≥ 75%
[2]
  peptide exchange yield: ≥ 75%

## ALVEQGFTV (also called APOB-001)
[1]
  peptide exchange yield: ≥ 75%
[2]
  peptide exchange yield: ≥ 75%

## VLTEFTREV (also called IPO9-001)
[1]
  peptide exchange yield: ≥ 75%
[2]
  peptide exchange yield: ≥ 75%

## ALASVIKEL (also called IFT81-001)
[1]
  peptide exchange yield: ≥ 75%
[3]
  peptide exchange yield: 50 to 75%

## FLDTPIAKV
[5]
  peptide exchange yield: 20 to 50%

## KLAEIVKQV (also called MAPKAPK5-001)
[1]
  peptide exchange yield: ≥ 75%
[2]
  peptide exchange yield: ≥ 75%

## YLITSVELL (also called ACSL4-001)
[1]
  peptide exchange yield: ≥ 75%
[2]
  peptide exchange yield: ≥ 75%

## TMAKESSIIGV
[5]
  peptide exchange yield: 20 to 50%

## SLLEKELESV (also called DRG2-001)
[3]
  peptide exchange yield: 50 to 75%
[4]
  peptide exchange yield: 50 to 75%

## GVMAGDIYSV (also called ADF-012)
[1]
  peptide exchange yield: ≥ 75%
[2]
  peptide exchange yield: ≥ 75%

## FLYPEKDEPT
[5]
  peptide exchange yield: 20 to 50%

## KIAGTNAEV
[5]
  peptide exchange yield: 20 to 50%

## FLASESLIKQI
[5]
  peptide exchange yield: 20 to 50%

## KLQAGTVFV (also called ALDH1L1-001)
[3]
  peptide exchange yield: 50 to 75%
[4]
  peptide exchange yield: 50 to 75%

## FTIPKLYQL
[5]
  peptide exchange yield: 20 to 50%

## GLAEELVRA
[5]
  peptide exchange yield: 20 to 50%

## GVYDGEEHSV (also called MAGEB2-001)
[4]
  peptide exchange yield: 50 to 75%

## KLSPTVVGL (also called AXIN2-001)
[3]
  peptide exchange yield: 50 to 75%
[4]
  peptide exchange yield: 50 to 75%

## AVLGPLGLQEV (also called THT-001)
[3]
  peptide exchange yield: 50 to 75%
[4]
  peptide exchange yield: 50 to 75%

## TLAQQPTAV
[5]
  peptide exchange yield: 20 to 50%

## SLIDQFFGV (also called USP14-001)
[1]
  peptide exchange yield: ≥ 75%

## ALLKVNQEL (also called SAMM-001)
[1]
  peptide exchange yield: ≥ 75%
[2]
  peptide exchange yield: ≥ 75%

## SLSQELVGV (also called ZNF318-001)
[3]
  peptide exchange yield: 50 to 75%
[4]
  peptide exchange yield: 50 to 75%

## KLLAATVLLL
[5]
  peptide exchange yield: 20 to 50%

## ALADLTGTVV (also called NCST-001)
[1]
  peptide exchange yield: ≥ 75%
[2]
  peptide exchange yield: ≥ 75%

## KLQDFSDQL (also called APOB-004)
[1]
  peptide exchange yield: ≥ 75%
[2]
  peptide exchange yield: ≥ 75%

## FLAELAYDL (also called GPC3-001)
[1]
  peptide exchange yield: ≥ 75%
[2]
  peptide exchange yield: ≥ 75%

## SLLEEFDFHV (also called USO-001)
[1]
  peptide exchange yield: ≥ 75%
[2]
  peptide exchange yield: ≥ 75%

## KLLEEATISV (also called DYM-001)
[3]
  peptide exchange yield: 50 to 75%
[4]
  peptide exchange yield: 50 to 75%
